Earlier results as cited in patent publication US7452531B2, “Compositions and methods for tumor-targeted delivery of effector molecules” (Vion Pharmaceuticals, Inc., priority 1999, dated 2008).

Tested on: primary tumors
Conditions: 100 mg/kg/day

For angiostatin, the toxic side effects is given as “without toxic side effects” and the tumor growth is given as “strong inhibition of tumor growth”.
